The results in this text go back to patent publication US20200339702A1 (ULTRAHUMAN THIRTEEN, published 2020).

As usually defined, the Kd is the equilibrium constant for the complex coming apart. One may read the koff as the first-order rate constant of dissociation. Broadly, the kon is the rate constant with which the complex forms. In general, EC50 (read off the curve) refers to the concentration at which the effect is half-maximal. As usually defined, the IC50 is the concentration needed to halve the response being measured.

Assay [1] deals with T1, human ERBB3 on transiently transfected HEK-293 cells (human, UniProt P21860 20-1342).
T1 construct: also called human ERBB3+ HEK-293 cells
In words: flow cytometry, human ERBB3-transfected HEK-293. The protocol: (§1) Purified IgGs were tested in FACs for binding to human and rhesus monkey ERBB3 expressed on transiently transfected HEK-293 cells and HEK-293 wild-type cells. The IgG samples were titrated in three-fold serial dilutions starting at 500 nM to 0.008 nM. Binding of IgGs was detected with a mouse anti-human IgG conjugated to FITC. Results were analyzed by examining the Mean Fluorescence Intensity (MFI) of 10000 cells per sample in the BL-1 channel detector of a flow cytometer (Attune™ NxT Acoustic Focusing Cytometer, Invitrogen/ThermoFisher Scientific).
(§2) Antibodies to ERBB3 were analysed for concentration-dependent binding at the cell surface via flow cytometry. HEK-293 cells were transiently transfected with either human or rhesus ERBB3 full-length cDNAs. Anti-ERBB3 IgGs and an isotype control were then all tested in IgG1null format, over a concentration range of 500-0.008 nM for binding to human (FIG. 5A) and rhesus (FIG. 5B) transfected cells.
For orientation: Flow cytometry measures light scatter and fluorescence of single cells or particles in a stream.

For assay [2], the target named is T2, rhesus ERBB3 on transiently transfected HEK-293 cells (rhesus monkey (Macaca mulatta), UniProt P21860 20-1342 (human entry)).
T2 construct: also called rhesus ERBB3+ HEK-293 cells
T2 chain: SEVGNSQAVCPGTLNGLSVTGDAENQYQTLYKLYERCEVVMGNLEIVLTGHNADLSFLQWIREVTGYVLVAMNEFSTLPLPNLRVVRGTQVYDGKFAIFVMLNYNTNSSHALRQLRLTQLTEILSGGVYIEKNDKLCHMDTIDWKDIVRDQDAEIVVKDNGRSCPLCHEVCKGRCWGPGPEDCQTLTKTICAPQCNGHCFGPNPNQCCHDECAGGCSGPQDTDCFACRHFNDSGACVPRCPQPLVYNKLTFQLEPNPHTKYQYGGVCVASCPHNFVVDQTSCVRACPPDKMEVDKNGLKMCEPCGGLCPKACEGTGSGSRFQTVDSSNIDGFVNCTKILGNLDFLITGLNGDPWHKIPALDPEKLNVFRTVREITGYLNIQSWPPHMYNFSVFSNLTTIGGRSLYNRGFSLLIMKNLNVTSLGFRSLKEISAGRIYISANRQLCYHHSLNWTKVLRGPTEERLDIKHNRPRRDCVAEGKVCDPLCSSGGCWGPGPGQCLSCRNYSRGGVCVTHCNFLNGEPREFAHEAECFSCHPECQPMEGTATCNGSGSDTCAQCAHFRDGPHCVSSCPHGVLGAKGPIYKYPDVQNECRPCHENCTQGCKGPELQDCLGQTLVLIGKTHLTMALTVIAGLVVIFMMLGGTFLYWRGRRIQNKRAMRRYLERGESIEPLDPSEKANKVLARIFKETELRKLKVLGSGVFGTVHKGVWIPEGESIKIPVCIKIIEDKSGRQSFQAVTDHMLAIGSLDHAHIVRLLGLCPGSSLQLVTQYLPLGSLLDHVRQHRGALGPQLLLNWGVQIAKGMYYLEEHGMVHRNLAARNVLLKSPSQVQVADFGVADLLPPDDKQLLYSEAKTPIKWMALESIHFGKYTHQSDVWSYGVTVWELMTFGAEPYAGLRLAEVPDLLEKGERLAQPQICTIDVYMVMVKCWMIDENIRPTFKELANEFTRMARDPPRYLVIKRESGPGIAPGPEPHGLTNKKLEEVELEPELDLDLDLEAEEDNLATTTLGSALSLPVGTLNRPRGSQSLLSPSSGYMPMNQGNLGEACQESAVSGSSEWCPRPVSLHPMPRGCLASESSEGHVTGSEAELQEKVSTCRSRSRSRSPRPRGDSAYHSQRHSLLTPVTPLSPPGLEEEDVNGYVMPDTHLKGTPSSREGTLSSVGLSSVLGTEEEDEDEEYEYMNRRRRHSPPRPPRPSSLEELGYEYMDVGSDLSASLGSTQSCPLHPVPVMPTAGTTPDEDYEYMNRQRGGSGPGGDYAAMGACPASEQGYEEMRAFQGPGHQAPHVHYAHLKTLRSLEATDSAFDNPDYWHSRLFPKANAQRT
Kind of assay: flow cytometry, rhesus ERBB3-transfected HEK-293. The procedure:
as §1, §2

The target in assay [3] is T3, human ERBB3 His tagged, monomeric (human, UniProt P21860 20-643, biotinylated in the Alphascreen assays (sites not given)).
T3 construct: Used unbiotinylated as Biacore analyte and biotinylated in Alphascreen; treated as one molecule; also called human ERBB3-His (Acrobiosystems); biotinylated monomeric human ERBB3
Kind of assay: SPR (Biacore), captured IgG, monomeric ERBB3-His analyte. The procedure:
(§3) Affinity (KD) of purified IgGs was determined via SPR with antigen in-solution on a Biacore® 3000 (GE). A mouse anti-human antibody (CH1 specific) was immobilized on a CM5 Sensor Chip to a level of 2000 RU in acetate buffer at pH 4.5 using amine coupling following the Wizard instructions for two channels. One channel was used for background signal correction. The standard running buffer HBS-EP pH 7.4 was used. Regeneration was performed with a single injection of 10 μl of 10 mM Glycine at pH 1.5 at […]. IgG samples were injected for 2 minutes at 50 nM at 30 μl/min followed by an off-rate of 60 seconds. The monomeric antigen (human ERBB3 His tagged or rhesus monkey ERBB3 His tag) was injected in two fold serial dilutions from 3 nM down to 0.2 nM, for 2 minutes at 30 μl/min followed by an off-rate of 300 seconds. The obtained sensorgrams were analysed using the Biacore® 3000 evaluation (BlAevaluation) software. The KD was calculated by simultaneous fitting of the association and dissociation phases to a 1:1 Langmuir binding model.
(§4) Biacore® analyses of binding affinity were performed for all IgGs to solution-phase, monomeric human and rhesus ERBB3 proteins.
(In general: In SPR one partner is held on a chip, and binding of the other changes the refractive index at the surface.)

In assay [4] the target is T4, rhesus monkey ERBB3 His tag, monomeric (rhesus monkey (Macaca mulatta), UniProt P21860 20-643 (human entry), limits assumed).
T4 chain: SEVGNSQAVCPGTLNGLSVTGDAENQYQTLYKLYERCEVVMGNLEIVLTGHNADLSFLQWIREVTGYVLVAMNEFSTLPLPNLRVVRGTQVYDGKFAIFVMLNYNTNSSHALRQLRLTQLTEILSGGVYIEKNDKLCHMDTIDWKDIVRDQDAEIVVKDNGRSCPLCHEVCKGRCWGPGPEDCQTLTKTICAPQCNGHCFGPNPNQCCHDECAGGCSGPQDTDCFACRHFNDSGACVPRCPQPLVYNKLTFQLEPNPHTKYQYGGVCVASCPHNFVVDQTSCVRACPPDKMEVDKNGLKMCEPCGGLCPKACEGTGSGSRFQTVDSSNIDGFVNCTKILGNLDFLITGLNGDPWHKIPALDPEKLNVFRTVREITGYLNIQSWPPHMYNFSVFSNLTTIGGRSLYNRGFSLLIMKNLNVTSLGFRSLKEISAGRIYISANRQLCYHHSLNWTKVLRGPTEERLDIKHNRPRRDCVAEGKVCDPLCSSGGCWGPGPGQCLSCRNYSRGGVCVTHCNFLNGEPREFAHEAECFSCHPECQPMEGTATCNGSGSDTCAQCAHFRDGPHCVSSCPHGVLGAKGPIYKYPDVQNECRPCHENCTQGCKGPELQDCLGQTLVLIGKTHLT
The description is as above. The protocol: as §3, §4

For assay [5], the target named is T3, human ERBB3 His tagged, monomeric. Kind of assay: SPR (Biacore). The protocol: as §3
For assay [6], the target named is T4, rhesus monkey ERBB3 His tag, monomeric. In words: SPR (Biacore). The protocol:
as §3

The target of assay [7] is T3, human ERBB3 His tagged, monomeric. Kind of assay: Alphascreen competition in solution, competitor h24C05 IgG1null, biotinylated human ERBB3-His. The procedure:
The AlphaScreen assay (Perkin Elmer) was performed in a 25 μl final volume in 384-well white microtiter plates (Greiner). The reaction buffer contained 1×PBS pH 7.3 (Oxoid, Cat. nr. BR0014G) and 0.05% (v/v) Tween® 20 (Sigma, Cat. nr. P9416). Purified IgG samples were titrated in three fold serial dilutions starting at 100 nM final concentration and incubated with biotinylated human ERBB3-His (Acrobiosystems) at 1 nM final concentration for 20 minutes at room temperature. The parental IgG and the anti-human IgG1 Acceptor beads at were added and the mix was incubated for 1 hour at room temperature. Followed by addition of the Streptavidin Donor beads and incubation for 30 minutes at room temperature. The emission of light was measured in the EnVision multilabel plate reader (Perkin Elmer) and analysed using the EnVision manager software. Values were reported as Counts Per Second (CPS) and corrected for crosstalk.

The target of assay [8] is T2, rhesus ERBB3 on transiently transfected …. Kind of assay: flow cytometry, rhesus ERBB3-transfected HEK-293 cells, IgG1 titrated. The protocol:
as §1

In the next assay the target is T5, human insulin (human, UniProt P01308 25-54; P01308 90-110, limits assumed).
T5 construct: Off-target protein in the development risk (polyreactivity) ELISA
In words: polyreactivity ELISA on human insulin, score. Background: ELISA stands for enzyme-linked immunosorbent assay.

For assay [9], the target named is T6, rhesus monkey ERBB3 human Fc tagged recombinant protein (rhesus monkey (Macaca mulatta), UniProt P21860 20-643 (human entry), limits assumed).
T6 construct: also called rhesus ERBB3-Fc; rhERBB3
T6 chain: T4 chain
In words: direct binding ELISA on coated rhesus ERBB3-Fc, IgG1 titrated. The protocol:
(§5) Binding and cross-reactivity of the lead panel to the recombinant proteins was initially assessed by binding ELISA. The human ERBB3 human Fc tagged recombinant protein and the rhesus monkey ERBB3 human Fc tagged recombinant protein were coated to the surface of MaxiSorp™ flat-bottom 96 well plate at 1 μg/ml. The purified IgG samples were titrated in two fold serial dilutions starting from 500 nM to 0.008 nM and allowed to bind to the coated antigens. The Fabs were detected using mouse anti-c-myc antibody followed by donkey anti-mouse IgG conjugated to horseradish peroxidase. The IgGs were detected using the mouse anti-human IgG conjugated to horseradish peroxidase. Binding signals were visualized with 3,3′,5,5′-Tetramethylbenzidine Substrate Solution (TMB) and the absorbance measured at 450 nm.

Assay [10] concerns the target T3, human ERBB3 His tagged, monomeric. Kind of assay: Alphascreen competition, solution phase; competitor h24C05 IgG1.
The target of assay [11] is T7, human ERBB3 human Fc tagged recombinant protein (human, UniProt P21860 20-643).
T7 construct: also called human ERBB3-Fc; huERBB3
In words: direct binding ELISA on coated human ERBB3-Fc, IgG1 titrated. The procedure:
as §5

Where a chain is given by its changes, count along the chain named. Names may count otherwise.

T5 sequence (P01308 25-54 limits assumed, chain 1 of 2): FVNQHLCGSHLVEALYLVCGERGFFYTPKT
T5 sequence (P01308 90-110 limits assumed, chain 2 of 2): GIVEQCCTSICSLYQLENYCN

B1: MH3 IgG1null (antibody, V domains shown)
VH: QVQLVESGGGLVKPGGSLRLSCAASGFTFSDYSMSWIRQAPGKGLEWVSTISDSGSTIYYADSVKGRFTISRDNAKNSLYLQMNSLRAEDTAVYYCAREWGDYDGFDFWGQGTLVTVSS
VL: DIQMTQSPSSLSASVGDRVTITCRASQSISSYLSWYQQKPGKAPKLLIYAASSLQSGVPSRFSGSGSGTDFTLTISSLQPEDFATYYCLQYDSTPLTFGGGTKVEIK
notes: Designer (Maximally Humanized) clone; Human IgG1null and human Ckappa
As for B1, the “maximum MFI, fold over isotype control background” value (shortened to “maximum MFI, fold”) in assay [1] and in [2] was above 20 fold throughout. Besides, the Kd in assay [3] was 0.85 nM; in [4], 0.63 nM. For the same molecule, the results for the koff in assay [3] and in assay [4] were 0.0065 s⁻¹ and 0.011 s⁻¹, respectively. In addition, the kon in assay [3] worked out at 7.6e+06 M⁻¹ s⁻¹; in assay [4], 1.8e+07 M⁻¹ s⁻¹. Besides, the “fold reduction in binding affinity against clone MH2” value in assay [5] and in assay [6] was around 3 fold each time.

B2: h24C05 IgG1null (antibody, V domains shown)
VH: B1 VH with S33A, S54G, S56T, T57Y, I58T, A61P, S63N, F108Y
VL: B1 VL with S28E, S31G, Y36F, L46S, S53T, Q55D, T94Y, L96Y
notes: Human IgG1null (L234A, L235A, G237A) and human Ckappa; also called humanized 24C05
Turning to B2, in assay [7], the “IC50 (read off the curve)” value is around 5 nM. In assay [1], the “maximum MFI, fold” value was above 20 fold. Further, in assay [2], the “maximum MFI, fold” value is above 20 fold. In assay [3], this molecule gave a Kd of 0.039 nM, a koff of 0.00096 s⁻¹ and an on-rate (kon) of 2.5e+07 M⁻¹ s⁻¹. In assay [4], the Kd was determined as 0.18 nM, the koff was determined as 0.00074 s⁻¹ and the kon stood at 4.1e+06 M⁻¹ s⁻¹.

B3: h24C05 IgG1 (antibody, V domains shown)
VH: B1 VH with S33A, S54G, S56T, T57Y, I58T, A61P, S63N, F108Y
VL: B1 VL with S28E, S31G, Y36F, L46S, S53T, Q55D, T94Y, L96Y
notes: Human IgG1 and human Ckappa; also called humanized 24C05
With B3, the entries for the half-maximal effective concentration (EC50 (read off the curve)) in assay [8], in assay [9] and in assay [11] were around 0.2 nM, around 0.1 nM and around 0.1 nM, respectively. Besides, the binding result in the assay with human insulin was “no binding”. The molecule further gave a 50% inhibitory concentration (IC50) in assay [10] of 1.25 nM.
